Results as given in FireProtDB (doi:10.1006/jmbi.1999.2569).

B1: Ribonuclease, P00648 (parent)
chain: MMKMEGIALKKRLSWISVCLLVLVSAAGMLFSTAAKTETSSHKAHTEAQVINTFDGVADYLQTYHKLPDNYITKSEAQALGWVASKGNLADVAPGKSIGGDIFSNREGKLPGKSGRTWREADINYTSGFRNSDRILYSSDWLIYKTTDHYQTFTKIR

Variants of: B1
Settings: Bacillus amyloliquefaciens, pH 6.3, Thermal, DSC, MES 50 mM, structure 1BNI, whole UniProt chain shown; for ddG of mutation (higher = less stable): 54.1 °C

Variant	ddG of mutation (higher = less stable)	Tm	change of melting temperature, mutant - wild type (higher = more stable)
MMKMEGIALKKRLSWISVCLLVLVSAAGMLFSTAAKTETSSHKAHTEAQVINTFDGVADYLQTYHKLPDNYITKSEAQALGWVASKGNLADVAPGKSIAGDIFSNREGKLPGKSGRTWREADINYTSGFRNSDRILYSSDWLIYKTTDHYQTFTKIR [G99A]	5.3 kcal/mol	–	–
MMKMEGIALKKRLSWISVCLLVLVSAAGMLFSTAAKTETSSHKAHTEAQVINTFDGVADYLQTYHKLPDNYITKSEAQALGWVASKGNLADVAPGKSIVGDIFSNREGKLPGKSGRTWREADINYTSGFRNSDRILYSSDWLIYKTTDHYQTFTKIR [G99V]	8.4 kcal/mol	33 °C	-21.1 °C
MMKMEGIALKKRLSWISVCLLVLVSAAGMLFSTAAKTETSSHKAHTEAQVINTFDGVADYLQTYHKLPDNYITKSEAQALGWVASKGNLADVAPGKSIGVDIFSNREGKLPGKSGRTWREADINYTSGFRNSDRILYSSDWLIYKTTDHYQTFTKIR [G100V]	7.8 kcal/mol	34.5 °C	-19.6 °C
MMKMEGIALKKRLSWISVCLLVLVSAAGMLFSTAAKTETSSHKAHTEAQVINTFDGVADYLQTYHKLPDNYITKSEAQALGWVASKGNLADVAPGKSIGADIFSNREGKLPGKSGRTWREADINYTSGFRNSDRILYSSDWLIYKTTDHYQTFTKIR [G100A]	3.4 kcal/mol	45.5 °C	-8.6 °C
